Experimental data published in publication PMC8113726.

Target: Xenopus cyclase-associated protein 1 (XCAP1) (X. laevis (endogenous in oocytes))
Assay: SEC-MALS + AUC; purified native XCAP1-actin complex; SEC-MALS on SRT SEC-300 in PBS pH 7.2, 0.02% NaN3, 20 °C; sedimentation velocity at 40,000 rpm, 20 °C

stoichiometry N: 4
Substance: Xenopus cyclase-associated protein 1 (XCAP1) (natural protein)
